Tests used:
murine CD1a (mouse) = assay: flow cytometry on mouse thymocytes, K-S statistics
murine CD1d (mouse) = murine CD1d (mouse) (UniProt P11609); assay: flow cytometry on mouse thymocytes, K-S statistics
Sequence of murine CD1d (mouse) (P11609 22-336): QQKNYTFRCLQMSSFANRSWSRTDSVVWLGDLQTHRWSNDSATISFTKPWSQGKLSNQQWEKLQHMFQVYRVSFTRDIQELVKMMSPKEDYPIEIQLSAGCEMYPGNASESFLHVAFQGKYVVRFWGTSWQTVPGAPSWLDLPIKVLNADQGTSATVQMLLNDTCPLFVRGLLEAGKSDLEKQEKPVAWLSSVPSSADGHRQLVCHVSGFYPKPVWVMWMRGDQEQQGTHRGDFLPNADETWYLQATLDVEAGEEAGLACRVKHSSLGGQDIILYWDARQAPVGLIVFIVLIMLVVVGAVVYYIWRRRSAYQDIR

- D-value (murine CD1a (mouse)): 0.03
- D-value (murine CD1d (mouse)): 0.03
Substance: Positive control (mouse anti-human CD1a-FITC) (antibody)

From patent US20060257397A1
